T1: GhGT26 (GST fusion) (Gossypium hirsutum, UniProt A0A8J9W0A6 1-391)
T1 sequence: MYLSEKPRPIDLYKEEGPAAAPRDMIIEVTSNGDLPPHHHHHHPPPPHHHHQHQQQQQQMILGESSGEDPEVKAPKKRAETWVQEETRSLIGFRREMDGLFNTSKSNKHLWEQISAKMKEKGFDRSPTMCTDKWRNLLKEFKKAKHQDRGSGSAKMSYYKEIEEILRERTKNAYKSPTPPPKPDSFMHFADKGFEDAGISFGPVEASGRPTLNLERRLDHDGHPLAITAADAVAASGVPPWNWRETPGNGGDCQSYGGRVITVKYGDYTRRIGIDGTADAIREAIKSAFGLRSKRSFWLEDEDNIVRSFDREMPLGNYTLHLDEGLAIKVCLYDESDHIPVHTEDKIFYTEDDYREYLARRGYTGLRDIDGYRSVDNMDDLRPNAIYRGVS

B1: MRE3 (dsDNA)
DNA 1: TCTAACCTACTAACCTACTAACCTACCA
DNA 2: TGGTAGGTTAGTAGGTTAGTAGGTTAGA
B2: MRE4 (dsDNA)
DNA 1: TATCTCACCTCTCACCTCTCACCGT
DNA 2: ACGGTGAGAGGTGAGAGGTGAGATA
B3: Site1-type (GT-3a) (dsDNA)
DNA 1: GCGTTACCGTTACCGTTACCAA
DNA 2: TTGGTAACGGTAACGGTAACGC

The values that follow come from article PMC9610538, “Trihelix Transcriptional Factor GhGT26 of Cotton Enhances Salinity Tolerance in Arabidopsis”.

The target of the series is T1, GhGT26 (GST fusion). Put plainly: EMSA; signal dramatically reduced by unlabeled competitor; Oligos annealed in 50 mM NaCl (70 °C 5 min, then room temperature); EMSA binding buffer, pH and temperature not given (as in ref. 48). Conditions: protein: recombinant; tags: GST (pGEX6p-1); label: digoxigenin; blunt (reverse complement stated). (In general: In EMSA bound probe runs differently from free probe, usually more slowly.)
In the case of B1, the binding result is recorded as “binds”.
With B2, the binding result is given as “binds”.
With B3, the binding result was “binds”.
